Source: the supplement of paper PMC9233669
Variants at the floor of the assay were thinned out.

What was measured:
biotinyl-Phe-oxazolone = assay: self-aminoacylation, catalytic enhancement (BFO) (fold over background); higher = more active; k-Seq, kA / k0A0; sequences stand for … in GGGAAUGGAUCCACAUCUACGAAUUC…UUCACUGCAGACUUGACGAAGCUG
Summary of the method: (§1)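 Catalytic enhancement equals the median kA over the uncatalyzed rate, the latter read from the low-activity peak of a bimodal Gaussian fit. Values of kA came from fitting each sequence's fraction reacted to a pseudo-first-order model, with 1000 bootstraps. Reacted RNA was captured with streptavidin and quantified by triplicate qPCR and Illumina sequencing after 90 minutes at room temperature with 2–1250 μM biotinyl-aminoacyl-oxazolone and 0.43 μM mutagenized RNA pools bearing a 21-nt variable region.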

biotinyl-Ile-oxazolone = assay: self-aminoacylation, catalytic enhancement (BIO) (fold over background); higher = more active; k-Seq, kA / k0A0; sequences stand for … in GGGAAUGGAUCCACAUCUACGAAUUC…UUCACUGCAGACUUGACGAAGCUG
Summary of the method: as §1

biotinyl-Met-oxazolone = assay: self-aminoacylation, catalytic enhancement (BMO) (fold over background); higher = more active; k-Seq, kA / k0A0; sequences stand for … in GGGAAUGGAUCCACAUCUACGAAUUC…UUCACUGCAGACUUGACGAAGCUG
Summary of the method: as §1

biotinyl-Val-oxazolone = assay: self-aminoacylation, catalytic enhancement (BVO) (fold over background); higher = more active; k-Seq, kA / k0A0; sequences stand for … in GGGAAUGGAUCCACAUCUACGAAUUC…UUCACUGCAGACUUGACGAAGCUG
Summary of the method: as §1

biotinyl-Leu-oxazolone = assay: self-aminoacylation, catalytic enhancement (BLO) (fold over background); higher = more active; k-Seq, kA / k0A0; sequences stand for … in GGGAAUGGAUCCACAUCUACGAAUUC…UUCACUGCAGACUUGACGAAGCUG
Summary of the method: as §1

biotinyl-Trp-oxazolone = assay: self-aminoacylation, catalytic enhancement (BWO) (fold over background); higher = more active; k-Seq, kA / k0A0; sequences stand for … in GGGAAUGGAUCCACAUCUACGAAUUC…UUCACUGCAGACUUGACGAAGCUG
Summary of the method: as §1

Sequence | self-aminoacylation (biotinyl-Phe-oxazolone) | self-aminoacylation (biotinyl-Ile-oxazolone) | self-aminoacylation (biotinyl-Met-oxazolone) | self-aminoacylation (biotinyl-Val-oxazolone) | self-aminoacylation (biotinyl-Leu-oxazolone) | self-aminoacylation (biotinyl-Trp-oxazolone)
AAAUUUGCUCAUAGUCGCAAG [Fam3.1 aminoacylation ribozyme variant] | 2.13 | 1.76 | 2.13 | 1.57 | 1.55 | 1.56
CAGUUUGCUAAUAGCCGCAAG [Fam3.1 aminoacylation ribozyme variant] | 1.44 | 1.86 | 1.26 | 1.46 | 1.69 | 1.07
CUACUUCAAACAAUCGGUAAG [Fam1A.1 aminoacylation ribozyme variant] | 1.29 | 0.516 | 0.454 | 0.662 | 0.448 | 0.835
AUUACCCUGGUCAUCUAGUGA [Fam2.1 aminoacylation ribozyme variant] | 42.9 | 4.51 | 9.61 | 4.83 | 9.15 | 11.3
CCACACUGCAAGAAAUCGGUC [Fam1B.1 aminoacylation ribozyme variant] | 1.29 | 1.51 | 1.12 | 1.72 | 1.51 | 1.51
CUACUUCAAACAAUCGGAUUG [Fam1A.1 aminoacylation ribozyme variant] | 2.03 | 0.999 | 0.953 | 0.89 | 0.719 | 1.3
CUACUUCAAACUAUCGGUCUA [Fam1A.1 aminoacylation ribozyme variant] | 1.08 | 0.944 | 0.729 | 0.912 | 0.696 | 0.62
CCGCACUUCAGGCAAUCGGUC [Fam1B.1 aminoacylation ribozyme variant] | 6.33 | 1.76 | 1.98 | 2.87 | 2.33 | 2.88
AUUCACCUAGUGCAUCGGGUG [Fam2.2 aminoacylation ribozyme variant] | 5.22 | 1.35 | 1.62 | 1.63 | 2.12 | 1.17
GUUAGCCUGGUCAUCGAGUGA [Fam2.1 aminoacylation ribozyme variant] | 51.9 | 5.11 | 6.67 | 5.04 | 7.66 | 8.56
AAUCACCUAGAUCAUCGGGUG [Fam2.2 aminoacylation ribozyme variant] | 9.55 | 2.75 | 2.41 | 2.68 | 2.55 | 3.99
UUACUACAAACAAUCGGUCUG [Fam1A.1 aminoacylation ribozyme variant] | 1.62 | 1.04 | 0.904 | 0.833 | 0.856 | 1.31
CGACACUUCAAGCAAACGGUC [Fam1B.1 aminoacylation ribozyme variant] | 0.979 | 0.814 | 0.687 | 0.76 | 0.537 | 0.612
AUGCUCCUAGGUCAUCGGGUG [Fam2.2 aminoacylation ribozyme variant] | 37.6 | 5.26 | 7.47 | 4.4 | 8.92 | 7.13
CUACUUCAAACAAUCCAUCUG [Fam1A.1 aminoacylation ribozyme variant] | 1.08 | 0.656 | 0.489 | 0.748 | 0.546 | 0.402
AAUUUUGCUAACAGUCGCAAG [Fam3.1 aminoacylation ribozyme variant] | 3.07 | 1.88 | 1.28 | 1.58 | 1.87 | 1.88
AGUCACCAAGGUCAUCGGGUG [Fam2.2 aminoacylation ribozyme variant] | 51.2 | 4.38 | 6.59 | 4.7 | 7.67 | 7.87
AUUACCCUACUCAUCGAGUGA [Fam2.1 aminoacylation ribozyme variant] | 35.1 | 3.24 | 7.19 | 3.19 | 6.54 | 9
CUACUUAAUACAAUCGGUCUG [Fam1A.1 aminoacylation ribozyme variant] | 0.835 | 0.782 | 0.89 | 0.849 | 0.761 | 0.631
AGUAUCCUGGUCAUCGAGUGA [Fam2.1 aminoacylation ribozyme variant] | 20.7 | 4.12 | 6.72 | 4 | 7.39 | 8.53
AAGUUUCCGAAUAGUCGCAAG [Fam3.1 aminoacylation ribozyme variant] | 2.81 | 2.01 | 1.73 | 1.79 | 1.7 | 1.87
